{"source": "patent US20260201020A1", "about": "“METHODS FOR EXPRESSION OF FUSION-FREE BOVINE ULTRALONG CDR3 SCAFFOLD” (priority 2022, published 2026)", "key": {"[1]": {"molecular_target": "SARS-CoV-2 Spike RBD (SARS-CoV-2), P0DTC2"}, "[2]": {"molecular_target": "SARS-CoV-2 Spike RBD (SARS-CoV-2), P0DTC2", "remark": "listed apart in the source"}, "[3]": {"molecular_target": "SARS-CoV-2 Spike RBD (SARS-CoV-2), P0DTC2", "remark": "listed apart in the source"}, "[4]": {"molecular_target": "SARS-CoV-2 Spike RBD (SARS-CoV-2), P0DTC2", "remark": "listed apart in the source"}, "[5]": {"molecular_target": "SARS-CoV-2 Spike RBD (SARS-CoV-2), P0DTC2", "remark": "listed apart in the source"}, "[6]": {"molecular_target": "SARS-CoV-2 Spike RBD (SARS-CoV-2), P0DTC2", "remark": "listed apart in the source"}, "[7]": {"molecular_target": "SARS-CoV-2 Spike RBD (SARS-CoV-2), P0DTC2", "remark": "listed apart in the source"}}, "note": "Like-named read-outs stand apart in the source and are kept apart here.", "data": [{"binder": "R2G3-His (modifications not checked) GGGGAMGSEGDKTCPDGYEHTCGCIGGCGCKRSACIGALCCQASLGGWLSDGETYTGGGGSGGGGSHHHHHH", "values": [{"measurement": "Adjusted Binding Rate", "setting": "[1]", "result": 2.88, "unit": "nm/s"}, {"measurement": "Adjusted Binding Rate", "setting": "[2]", "result": 3.73, "unit": "nm/s"}, {"measurement": "Adjusted Binding Rate", "setting": "[3]", "result": 31.9, "unit": "nm/s"}, {"measurement": "Adjusted Binding Rate", "setting": "[4]", "result": 8.31, "unit": "nm/s"}, {"measurement": "Adjusted Binding Rate", "setting": "[5]", "result": 7.41, "unit": "nm/s"}, {"measurement": "Adjusted Binding Rate", "setting": "[6]", "result": 4.4, "unit": "nm/s"}, {"measurement": "Adjusted Binding Rate", "setting": "[7]", "result": 4.3, "unit": "nm/s"}]}]}
